In PMC12375108, “A repurposed AMP binding domain reveals mitochondrial protein AMPylation as a regulator of cellular metabolism” (Nature Communications, 2025):

T1: AMPylated sucA (UniProt P0AFG3 1-933, multiple AMPylation sites, residues not given)
T1 construct: sucA, model AMPylated substrate of E. coli SelO; also called sucA-AMP; SucA-AMP; source: E. coli BL21, co-expressed with SelO V242A (pETDuet), purified (Ni-NTA)
T1 sequence (looked up): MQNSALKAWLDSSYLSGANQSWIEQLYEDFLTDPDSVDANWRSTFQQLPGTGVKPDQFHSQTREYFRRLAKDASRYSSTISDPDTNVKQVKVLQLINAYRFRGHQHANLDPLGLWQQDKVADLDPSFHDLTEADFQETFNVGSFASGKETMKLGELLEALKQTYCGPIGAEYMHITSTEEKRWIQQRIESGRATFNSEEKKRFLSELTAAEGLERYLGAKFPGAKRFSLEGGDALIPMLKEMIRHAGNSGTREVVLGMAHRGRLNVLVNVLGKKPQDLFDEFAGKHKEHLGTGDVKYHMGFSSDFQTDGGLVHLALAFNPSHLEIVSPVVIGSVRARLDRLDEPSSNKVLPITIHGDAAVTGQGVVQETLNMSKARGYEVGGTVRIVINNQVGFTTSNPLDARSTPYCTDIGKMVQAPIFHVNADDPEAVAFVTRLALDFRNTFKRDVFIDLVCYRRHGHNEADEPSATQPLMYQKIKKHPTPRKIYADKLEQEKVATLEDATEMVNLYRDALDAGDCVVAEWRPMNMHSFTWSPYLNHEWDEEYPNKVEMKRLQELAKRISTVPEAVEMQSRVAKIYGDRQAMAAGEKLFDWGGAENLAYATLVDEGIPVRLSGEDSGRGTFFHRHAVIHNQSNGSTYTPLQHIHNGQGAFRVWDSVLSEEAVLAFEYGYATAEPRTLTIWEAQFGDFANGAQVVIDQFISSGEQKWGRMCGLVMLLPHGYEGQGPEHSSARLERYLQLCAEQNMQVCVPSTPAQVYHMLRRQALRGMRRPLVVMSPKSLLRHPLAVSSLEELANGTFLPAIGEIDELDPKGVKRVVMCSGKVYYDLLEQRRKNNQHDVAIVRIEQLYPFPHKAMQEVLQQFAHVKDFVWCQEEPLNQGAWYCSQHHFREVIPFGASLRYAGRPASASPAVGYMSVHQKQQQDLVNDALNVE

T2: AMPylated GlnA (glutamine synthetase), recombinant (E. coli, UniProt P0A9C5 1-469, AMPylated tyrosine at 398 (Tyr398-AMP))
T2 construct: glutamine synthetase GlnA, cloned in ppSumo; Species is stated for GlnA in general (E. coli), not for the ppSumo construct; also called GlnA-AMP; copies: 12
T2 sequence: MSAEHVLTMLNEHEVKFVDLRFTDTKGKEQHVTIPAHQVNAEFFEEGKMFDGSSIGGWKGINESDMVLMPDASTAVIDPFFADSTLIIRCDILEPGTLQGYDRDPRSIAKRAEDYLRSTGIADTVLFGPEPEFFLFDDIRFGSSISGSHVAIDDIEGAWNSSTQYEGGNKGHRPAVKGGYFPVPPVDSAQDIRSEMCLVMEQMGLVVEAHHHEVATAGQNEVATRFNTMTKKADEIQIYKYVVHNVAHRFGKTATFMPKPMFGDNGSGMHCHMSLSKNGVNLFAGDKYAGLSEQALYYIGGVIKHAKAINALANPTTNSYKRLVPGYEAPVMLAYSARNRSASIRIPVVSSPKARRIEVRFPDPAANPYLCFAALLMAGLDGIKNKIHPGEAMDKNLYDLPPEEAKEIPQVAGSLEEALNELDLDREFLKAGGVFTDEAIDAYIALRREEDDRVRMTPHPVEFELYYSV


Assays:
[1] = biological target: T1, AMPylated sucA; assay: BLI; GST-hinT (90 nM) immobilised on anti-GST biosensors; sucA-AMP 500 to 7.81 nM, unmodified sucA at 500 nM; 10 mM Tris pH 8, 150 mM NaCl, 0.1% Triton X-100; KD from steady-state responses, one site; conditions: both partners purified
[2] = biological target: T2, AMPylated GlnA (glutamine synthetase), …; assay: far-Western, overlay or dot blot; dot blot: 400 ng to 25 ng of AMPylated or non-AMPylated protein spotted on nitrocellulose, probed with GST or GST-hinT at 0.125 μg/mL in TBST for 1 h, detected with α-GST; conditions: both partners purified
[3] = biological target: the molecule itself; assay: cryo-EM structure; GlnA (4.68 mg/ml) mixed with hinT (3.29 mg/ml), 1:3 molar ratio of monomers; 10 mM Tris pH 8, 150 mM NaCl, 2 mM DTT

Binder	Kd [1] [nM]	binding result [2]	stoichiometry N [3]
GST-tagged E. coli hinT H101N E96S (enzyme, UniProt P0ACE7 1-119, looked up, E. coli hinT in pGEX-rTEV, E96S made by site directed mutagenesis on the H101N form; also called GST-Ec hinT^(HN, E96S); GST-Ec hinT^E96S; not shown: GST, N-terminal, kept) MAEETIFSKIIRREIPSDIVYQDDLVTAFRDISPQAPTHILIIPNILIPTVNDVSAEHEQALGRMITVAAKIAEQEGIAEDGYRLIMNTNRHGGQSVYHINMHLLGGRPLGPMLAHKGL	21	binds	–
E. coli hinT H101N (untagged) (enzyme, UniProt P0ACE7 1-119, looked up, open reading frame cloned into pProEx; ATG replaces the endogenous TTG start codon; also called hinT^HN; source: E. coli BL21, purified (Ni-NTA, TEV cleavage, Superdex 75)) MAEETIFSKIIRREIPSDIVYQDDLVTAFRDISPQAPTHILIIPNILIPTVNDVSAEHEQALGRMITVAAKIAEQEGIAEDGYRLIMNTNRHGGQEVYHINMHLLGGRPLGPMLAHKGL	–	–	2
